Measured values published in patent US20190177709.

What was measured:
Experiment in all cases: cell_activity
[1] = target: ZFN 65459 (left) F1 Qm14 Qm5, F3 Qm5, F5 Qm5 (R to Q) (synthetic) (UniProt P14870); conditions: with 65526, L:R 60:15 ug RNA, CD34+ cells
[2] = target: ZFN 65526 (right) F1 Qm5, F2 Qm5, F4 Qm5, F5 Qm5 (R to Q); FokI R416S (synthetic) (UniProt P14870); conditions: with 63014, L:R 60:15 ug RNA, CD34+ cells
[3] = target: ZFN 65549 (right) F1 Qm5, F2 Qm5, F3 Qm5, F4 Qm5 (R to Q); FokI K525S (synthetic) (UniProt P14870); conditions: with 63014, 60:60 ug RNA, CD34+ cells; Table 3 gives 79.82
[4] = target: ZFN 65550 (right) F1 Qm5, F2 Qm5, F4 Qm5, F5 Qm5 (R to Q); FokI K525S (synthetic) (UniProt P14870); conditions: with 63014, 60:60 ug RNA, CD34+ cells; Table 3 gives 79.96

Sequence | activity [1] [% indels] | activity [2] [% indels] | activity [3] [% indels] | activity [4] [% indels]
AAAGCAACTGTTAGCTTGCACTAGACTA (double strand) [BCL11A +58 left half-site] | 76.9 | – | – | –
CACAGGCTCCAGGAAGGGTTTGGCCTCT (double strand) [BCL11A +58 right half-site] | – | 81.2 | 80 | 79.8
